This passage reports Kd results from PMC3139429.

The term Kd denotes the equilibrium constant for the complex coming apart.

For data set [1], the target named is MA (unmyristoylated matrix) (HIV-1, UniProt P12493 2-132). The experiment in a line: fluorescence anisotropy. (Fluorescence polarisation rises when a labelled molecule tumbles more slowly, as on binding a larger partner.)
In data set [2] the target is MyrMA (myristoylated matrix) (HIV-1, UniProt P12493 2-132). The experiment in a line: fluorescence anisotropy.

B1: FITC-Sel25 (structured_RNA)
RNA: GGACAGGAAUUAAUAGUAGCUGUCC
Regarding B1, the Kd amounted to 1.03 ± 0.08 µM in data set [1] and 0.813 ± 0.074 µM in data set [2].
